Results: the DeepSol protein solubility set

Assay: soluble on expression in E. coli; label from the status in PepcDB or PDB records

Sequence	soluble on expression in E. coli
MTATLSWIDEITMTELERNPYPVYERLRAEAPLAYVPVLGSFVATTADLCRTIANSPDFEGIITKAGGRTFGHPAVIGVNGEIHRDLRSMVDPALQPSEVDRWVDGLVRPIARRYVEQFENDGKADLVSQYCEPVSVRALGDLLGLNEVSSDTLRDWFHRLSNSFTNAGVDADGEFTNPEGFVQGDEAKAEIRAVVDPLIDKWTVHPDDSAISHWLHDGMPEGQVRDREYIYPTLFVYLLGAMQEPGHGMASTLVGLFTRPEQLEAVIDEPALIPRAISEGMRWTSPIWSATARISTKDVTLGDVFLPEGSVVLLSYGSANHDTAVYDAPSDYDMTRPPLPHLAFGSGNHACAGIYFANHVCRIGLEELFEAIPNLERDSGADVEFWGWGFRGPTALRATWEV	not soluble
MTATWEKKEGNEGLLTVTVPAEKVNKALDQAFKKVVKQINVPGFRKGKVPRPIFEQRFGVEALYQDAIDILLPDAYGEAIDETDIKPVAQPEVSVTQIEKGKDFIFEATVTVEPEVKLGDYKGLEIEKQETELSDDELQEAIDHSLGHLAEMVVKEDGVVENGDTVNIDFSGSVDGEEFEGGQAEGYDLEIGSGSFIPGFEEQLEGMKVDEEKDVVVTFPEEYHAEELAGKEATFKTKVNEIKFKEVPELTDEIANELDAEANTVDEYKENLRKRLAEQKATDAENVEKEEAITKATDNTTIDIPEAMVNTELDRMVSEFAQRIQQQGLDLQTYFQISGQDETQLREQMKDDAEQRVKTNLTLTAIAEAEKIEATDEDIDKELEKMSKQFNISVEDIKNTLGNTDIIKNDVRIQKVIDLLRDNAKFVEGTKED	not soluble
MTCLSRDWATAQRLVEWALASTRCECFNVDSNFMAGLCLVENPTKQHYSFEVRKQVVDRFNAGQSKMDLAREFGLSSDQLVSSWVRAWRAGGDEALRPKPKGRPKGSASSKPLTEEDRLRREVEKLRAENAYLKKLRDLRNQRRS	not soluble
MTDCEFGYIYRLAQDYLQCVLQIPQPGSGPSKTSRVLQNVAFSVQKEVEKNLKSCLDNVNVVSVDTARTLFNQVMEKEFEDGIINWGRIVTIFAFEGILIKKLLRQQIAPDVDTYKEISYFVAEFIMNNTGEWIRQNGGWENGFVKKFEPKSGWMTFLEVTGKICEMLSLLKQYC	soluble
MTDKNPISEAKRYLDNARTILKEKGNKENRFYRDPKYVKMAGHTAYAGVLLALDACFGDKTKGRKDVGWYKEQLSGMDKTALKNFISAYDLLHVAMSYDGNTDSDIAKLGLTRADEIILWVEQRTVTC	soluble
MTDMDPSNMTGGPMNGHSAEKSSEEKKSPRSSRGVGEDLKNAGKDAMNTMENAGKNAWDKAGELGKSGINTVQSAGSAVKNGAKDLAGKVDKAL	soluble
MTDNLNLGAIDLGTDDEFIARHIGPRAADTQAMLQRLGYDSLDTLIGNVIPDSIKGSSVLDLPAGMGEAEALASLKAIAARNRALRSFIGQGYYNCHTPAPILRNLLENPAWYTAYTPYQPEISQGRLEALLNFQTLVSDLSGLPIANASMLDEATAAAEAMTFCKRLSKNRTSQAFFASRHCHPQTLDVLRTRAEPLGIEVVVGDESTIEDFSAYFGALLQYPTCDGEIVDYRELVSRFHAVDALVAVAADLLALTLLTPPGEFGADVAIGSAQRFGVPLGFGGPHAAYFATRDAFKRDMPGRLVGVSIDRHGKPAYRLAMQTREQHIRREKATSNICTAQVLLANIASMFAVYHGPQGLLRIARRTHRLTAILAAGLERLGVAVEQKHFFDTLSLATGARTAAIHAKARAAGINLREIDAGRLGLSLDETVRQTDVETLWGLLAEEGQALPDFAALAASSGDRLPVELLRQSAILSHPIFNRHHSETELMRYLRKLADKDLALDRTMIPLGSCTMKLNAASEMIPVTWAEFGNLHPFAPAEQSEGYRQLTDELEAMLCSATGYDAVSLQPNAGSQGEYAGLLAIRAYHQSRGDSQRDICLIPSSAHGTNPATASMVGMRVVVVACDARGNVDVEDLRNKASEHKERLAALMITYPSTHGVFEEAIREICAIVHDCGGQVYIDGANMNAMVGLCAPGKFGGDVSHLNLHKTFCIPHGGGGPGVGPIGVRAHLAPFLPGHARGERKEGAVSAAPYGSASILPITWMYIRMMGGEGLKRASEMAILNANYIAHRLEEHYPVLYAGGNGLVAHECILDLRPLKDSSGISVDDVAKRLMDFGFHAPTMSFPVAGTLMIEPTESESKAELDRFCDAMIRIREEIRAVERGELDKEDNPLKNAPHTAAELLGEWNHAYSREQAAYPLASLVEAKYWPPVGRVDNVYGDRNLTCSCPPIEAYS	not soluble
MTEAPKIEKSFNEISDMEQIFVEHHSFGIVSLSSISESLKRLELSADLNIQELLAIKKVLQSSSDMIHFYSDLDNVSFQSLDRLFENLEQFPNLQGSFQAINDGGFLEHFASPELERIRRQLTNSERRVRQILQDMLKEKAELLSENLIASRSGRSVLPVKNTYRNRISGVVHDISSSGSTVYIEPRAVVTLNEEITQLRADERHEESRILHAFSDLLRPHVATIRNNAWILGHLDFVRAKYLFMSDNKATIPEISNDSTLALINVRHPLLSNPVANDLHFDQDLTAIVITGPNTGGKTIMLKTLGLAQLMGQSGLPVLADKGSKIAVFNNIFADIGDEQSIEQSLSTFSSHMTHIVSILNEADHNSLVLFDELGAGTDPQEGASLAMAILEHLRLSNIKTMATTHYPELKAYGIETNFVENASMEFDAETLSPTYRFMQGVPGRSNAFEIASRLGLAPFIVKQAKQMTDSDSDVNRIIEQLEAQTLETRRRLDHIKEVEQENLKFNRAVKKLYNEFSHERDKELEKIYQEAQEIVDMALNESDTILKKLNDKSQLKPHEIIDAKAQIKKLAPQVDLSKNKVLNKAKKIKAARAPRIGDDIIVTSYGQRGTLTSQLKDGRWEAQVGIIKMTLTQDEFTLVRVQEEQKVKSKQINVVKKADSSGPRARLDLRGKRYEEAMQELDNFIDQALLNNMGQVDIIHGIGTGVIREGVTKYLRRNKHVKHFAYAPQNAGGSGATIVTLGLEHHHHHH	not soluble
MTEEILKQGVGIVETSLTFEPPFCESFERISIDNFPIFALGKEISKEDGIEAMKKYVTSRFWFTYRRDFSPIGGTGPSTDQGWGCMLRCAQMLLGEVLLRRHIGRHFEWDIEKTSEIYEKILQMFFDEKDALYSIHQIAQMGVTEGKEVSKWFGPNTAAQVMKKLTIFDDWSNIAVHVALDNILVKEDAITMATSYPSEDAVKLIMGKKGLQTTKRKNRKNLDFTVKYLKQIKFFKFFNLFQIFYENGLVDKNRLSLSPGNIIPEWRPLLLMIPLRLGLTTINPCYLSAIQEFFKIPQCVGIIGGRPNHALYFVGMSGSKLFYLDPHYCRPKTESTAKMYAEKDSTATTDDVGFSHLEELVPLPSQTADVYTKMDDSTYHCQMMLWIEYENVDPSLALAMFCETRDEFENLCETLQKTTLPASQPPMFEFLQRRPKYLPKFEPYTGVSMKIEMKEFDDIGAANVKIDDDFEVLDVHTEEEDADEDNDDDVANA	not soluble
MTEGDDQLISIRKQLENLNNATDDINSYEMKLETVKKQFCETQLMFNKEMLGIPKKLAKHISKSRQFFDLKSRESEIRRCVQQAAAQFERQKTSVEMAREQVQILHNSLNNNQELDAEKQYVDVIEQQLELVKEAEGECLKAEKCHASRVRDLLQLEMALRKCLEENGSAIKKSRPYYERKEVLTRTMNSQLELMSILEHEVQERKDSYSDSMRALEQISDQIHQERSSQSSLAPSSDAESDSS	not soluble
MTEHRPAIELEEIPTLLERIEGYKGRSRLTQLAIKLNLLIFIRSSELRFARWSEIDFKSGLWVIPEQREAIKGIKHSDRGAKMRRKHYVPLCEQALVILGELKDLTYDVNGDDGFILTGCYDAMKPMSENTINKALRKMGYDTKTDLCGHGFRTLACSALIESGIWPEDVVELQMSHMEKNNVRAAYTHKAKHLEQRRLMLQWWADFLDANGSGMVRPFEFAQGATQYLEHHHHHH	not soluble
MTEHTGLWLYAVADQLPDGRLPCPAGIDEAPVEAIAHDGLAAVVSPVDLHHYGEEALARRLEDFDWLAATANRHHAVIEAVHHLSTTVPMRLATVYTEPRRVSTLLAEQHDLLRRALDSVAGHTEWGVKAFAVNRPQAPPAAGGEESGAAYLRRRRAELANADAVRQEVWDAAQHAFHELGLLAVAQRRHRPQDAKLTGKPEPMLLNGSFLVEDTEQDAFTKAVSTLTADHPELEIQLSGPWPPYSFAGLAVEA	not soluble
MTEKEKMLAEKWYDANFDQYLINERARAKDICFELNHTRPSATNKRKELIDQLFQTTTDNVSISIPFDTDYGWNVKLGKNVYVNTNCYFMDGGQITIGDNVFIGPNCGFYTATHPLNFHHRNEGFEKAGPIHIGSNTWFGGHVAVLPGVTIGEGSVIGAGSVVTKDIPPHSLAVGNPCKVVRKIDNDLPSETLNDETIK	soluble
